From article PMC7784689, “Structural mechanism of phospholipids translocation by MlaFEDB complex” (Cell Research, 2020)
Changes are numbered by the printed parent chain.

B1: MlaF (natural protein, E. coli K-12, UniProt P63386 1-269, looked up)
chain: MEQSVANLVDMRDVSFTRGNRCIFDNISLTVPRGKITAIMGPSGIGKTTLLRLIGGQIAPDHGEILFDGENIPAMSRSRLYTVRKRMSMLFQSGALFTDMNVFDNVAYPLREHTQLPAPLLHSTVMMKLEAVGLRGAAKLMPSELSGGMARRAALARAIALEPDLIMFDEPFVGQDPITMGVLVKLISELNSALGVTCVVVSHDVPEVLSIADHAWILADKKIVAHGSAQALQANPDPRVRQFLDGIADGPVPFRYPAGDYHADLLPGS
notes: expressed from the full mlaFEDCB operon amplified from genomic DNA; Homodimer within the 2:2:6:2 MlaFEDB complex; also called NBD protein MlaF
B2: MlaF E170Q (natural protein, E. coli K-12, UniProt P63386 1-269, looked up)
chain: B1 chain with E170Q
notes: MlaF, E. coli K-12, with the catalytic glutamate of Walker B changed to glutamine; expressed from the full mlaFEDCB operon; PDB 7CGE holds the wild-type parent; also called MlaFEQ; EQ mutant; source: E. coli C43(DE3), co-expressed from mutated pET20b-mlaFEDCB, purified as MlaFEQEDB, in nanodisc
B3: MlaD (natural protein, E. coli K-12, UniProt P64604 1-183, looked up)
chain: MQTKKNEIWVGIFLLAALLAALFVCLKAANVTSIRTEPTYTLYATFDNIGGLKARSPVSIGGVVVGRVADITLDPKTYLPRVTLEIEQRYNHIPDTSSLSIRTSGLLGEQYLALNVGFEDPELGTAILKDGDTIQDTKSAMVLEDLIGQFLYGSKGDDNKNSGDAPAAAPGNNETTEPVGTTK
notes: expressed from the full mlaFEDCB operon amplified from genomic DNA; Homo-hexamer within the 2:2:6:2 MlaFEDB complex
B4: MlaE (natural protein, E. coli K-12, UniProt P64606 1-260, looked up)
chain: MLLNALASLGHKGIKTLRTFGRAGLMLFNALVGKPEFRKHAPLLVRQLYNVGVLSMLIIVVSGVFIGMVLGLQGYLVLTTYSAETSLGMLVALSLLRELGPVVAALLFAGRAGSALTAEIGLMRATEQLSSMEMMAVDPLRRVISPRFWAGVISLPLLTVIFVAVGIWGGSLVGVSWKGIDSGFFWSAMQNAVDWRMDLVNCLIKSVVFAITVTWISLFNGYDAIPTSAGISRATTRTVVHSSLAVLGLDFVLTALMFGN
notes: MlaE, the transmembrane (permease) subunit of the MlaFEDB ABC transporter, E. coli K-12; expressed from the full mlaFEDCB operon amplified from genomic DNA; Homodimer within the 2:2:6:2 MlaFEDB complex; also called TMD protein MlaE

Experiments:
[1] = molecular target: the molecule itself; experiment: cryo-EM structure; nucleotide-free MlaFEDB in POPG nanodisc (MSP1D1), 4 mg/mL, 25 mM Tris pH 7.8, 150 mM NaCl; 2.9 Å
[2] = molecular target: the molecule itself; experiment: cryo-EM structure; MlaFEQEDB (MlaF E170Q) in nanodisc, incubated with 2 mM ATP and 2 mM MgCl2 for 30 min at room temperature; two conformations, EQ_tall (4.3 Å) and EQ_close (3.7 Å)
MlaE = molecular target: B4; experiment: cryo-EM structure; nucleotide-free MlaFEDB in POPG nanodisc (MSP1D1), 4 mg/mL, 25 mM Tris pH 7.8, 150 mM NaCl; 2.9 Å; details: both partners purified

Binder	stoichiometry N [1]	further results
B1	2	
B2		stoichiometry N [2]: 2
B3		stoichiometry N (MlaE): 3
B4	2	
